# Positions count from the first letter of the chain named. Names and notes keep the numbering of the source.
# B1: 31 bp EMSA (X12-3SC) (dsDNA)
# DNA 1: TTGCTAGGACATGCTGTCTAGAGACTATCGC
# DNA 2: GCGATAGTCTCTAGACAGCATGTCCTAGCAA
# B2: 197 bp mass photometry (dsDNA)
# DNA 1: GCTTCGTATGTTTCTCCTGCTTATCACCTTCTTGAAGGCTTCCCATTCATTCAGGAACCGCCTTCTGGTGATTTGCAAGAACGCGTACTTATTCGCCACCATGATTATGACCAGTGTTTCCAGTCCGTTCAGTTGTTGCAGTGGAATAGTCAGGTTAAATTTAATGTGACCGTTTATCGCAATCTGCCGACCACTCG
# DNA 2: GCGAGTGGTCGGCAGATTGCGATAAACGGTCACATTAAATTTAACCTGACTATTCCACTGCAACAACTGAACGGACTGGAAACACTGGTCATAATCATGGTGGCGAATAAGTACGCGTTCTTGCAAATCACCAGAAGGCGGTTCCTGAATGAATGGGAAGCCTTCAAGAAGGTGATAAGCAGGAGAAACATACGAAG
# B3: S. cerevisiae Rad50, wild type, untagged (co-expressed subunit) (natural protein, UniProt P12753 1-1312, looked up)
# chain: MSAIYKLSIQGIRSFDSNDRETIEFGKPLTLIVGMNGSGKTTIIECLKYATTGDLPPNSKGGVFIHDPKITGEKDIRAQVKLAFTSANGLNMIVTRNIQLLMKKTTTTFKTLEGQLVAINNSGDRSTLSTRSLELDAQVPLYLGVPKAILEYVIFCHQEDSLWPLSEPSNLKKKFDEIFQAMKFTKALDNLKSIKKDMSVDIKLLKQSVEHLKLDKDRSKAMKLNIHQLQTKIDQYNEEVSEIESQLNEITEKSDKLFKSNQDFQKILSKVENLKNTKLSISDQVKRLSNSIDILDLSKPDLQNLLANFSKVLMDKNNQLRDLETDISSLKDRQSSLQSLSNSLIRRQGELEAGKETYEKNRNHLSSLKEAFQHKFQGLSNIENSDMAQVNHEMSQFKAFISQDLTDTIDQFAKDIQLKETNLSDLIKSITVDSQNLEYNKKDRSKLIHDSEELAEKLKSFKSLSTQDSLNHELENLKTYKEKLQSWESENIIPKLNQKIEEKNNEMIILENQIEKFQDRIMKTNQQADLYAKLGLIKKSINTKLDELQKITEKLQNDSRIRQVFPLTQEFQRADLEMDFQKLFINMQKNIAINNKKMHELDRRYTNALYNLNTIEKDLQDNQKSKEKVIQLLSENLPEDCTIDEYNDVLEETELSYKTALENLKMHQTTLEFNRKALEIAERDSCCYLCSRKFENESFKSKLLQELKTKTDANFEKTLKDTVQNEKEYLHSLRLLEKHIITLNSINEKIDNSQKCLEKAKEETKTSKSKLDELEVDSTKLKDEKELAESEIRPLIEKFTYLEKELKDLENSSKTISEELSIYNTSEDGIQTVDELRDQQRKMNDSLRELRKTISDLQMEKDEKVRENSRMINLIKEKELTVSEIESSLTQKQNIDDSIRSKRENINDIDSRVKELEARIISLKNKKDEAQSVLDKVKNERDIQVRNKQKTVADINRLIDRFQTIYNEVVDFEAKGFDELQTTIKELELNKAQMLELKEQLDLKSNEVNEEKRKLADSNNEEKNLKQNLELIELKSQLQHIESEISRLDVQNAEAERDKYQEESLRLRTRFEKLSSENAGKLGEMKQLQNQIDSLTHQLRTDYKDIEKNYHKEWVELQTRSFVTDDIDVYSKALDSAIMKYHGLKMQDINRIIDELWKRTYSGTDIDTIKIRSDEVSSTVKGKSYNYRVVMYKQDVELDMRGRCSAGQKVLASIIIRLALSETFGANCGVIALDEPTTNLDEENIESLAKSLHNIINMRRHQKNFQLIVITHDEKFLGHMNAAAFTDHFFKVKRDDRQKSQIEWVDINRVTY
# notes: Rad50, S. cerevisiae, untagged; also called Rad50^wt; untagged Rad50; source: Sf9, co-expressed with Mre11-6xHis (and FLAG-Xrs2)
# B4: S. cerevisiae Rad50, wild type, expressed and purified alone (natural protein, UniProt P12753 1-1312, looked up)
# chain: B3 chain
# notes: Rad50, S. cerevisiae; also called Rad50^wt
# B5: S. cerevisiae Rad50^N121A/D124N, expressed and purified alone (natural protein, UniProt P12753 1-1312, looked up)
# chain: B3 chain with N121A, D124N
# notes: Rad50, S. cerevisiae; also called Rad50^ho
# B6: 20 bp EMSA (PC216_20 nt) (dsDNA)
# DNA 1: CGTACTCCACCTCATGCATC
# DNA 2: GATGCATGAGGTGGAGTACG
# modifications: biotin position marked on a T of strand 2 in table
# B7: 70 bp EMSA (PC210/PC211) (dsDNA)
# DNA 1: GTAAGTGCCGCGGTGCGGGTGCCAGGGCGTGCCCTTGGGCTCCCCGGGCGCGTACTCCACCTCATGCATC
# DNA 2: GATGCATGAGGTGGAGTACGCGCCCGGGGAGCCCAAGGGCACGCCCTGGCACCCGCACCGCGGCACTTAC
# modifications: biotin positions marked in table
# B8: 106 bp mass photometry (dsDNA)
# DNA 1: TTAGCTCCTACGCGGAACGAGACCTACCAATATACCTATATCAATGGCCTCCCACGCATAAGCCTCGGGAGCTCGACCATCTGGTCTCATCGGACACTTAGGACCA
# DNA 2: TGGTCCTAAGTGTCCGATGAGACCAGATGGTCGAGCTCCCGAGGCTTATGCGTGGGAGGCCATTGATATAGGTATATTGGTAGGTCTCGTTCCGCGTAGGAGCTAA
# B9: 73 bp mass photometry (dsDNA)
# DNA 1: GACCACCCTTTTTGATATAATATACCTATATCAATGGGCTCCCACGCAATTCGGCAGATACGTTCTGAGGGAA
# DNA 2: GCCCATTGATATAGGTATATTATATCAAAAAGGGTGGTCTTCCCTCAGAACGTATCTGCCGAATTGCGTGGGA
# Tests used:
# Mre11-Rad50 (MRwt) [1] = target: T1, Mre11-Rad50 (MRwt) (S. cerevisiae, UniProt P32829;P12753 1-692;1-1312); test: EMSA; ATPgS, 5 mM Mg2+, 30 mM NaCl; mean of the 3 visible of 4 replicates (14.03, 13.92, 12.72); apparent; Oligo EMSA: 25 mM Tris acetate pH 7.5, 1 mM DTT, 0.25 mg/ml BSA, 5 mM Mg acetate, 1 mM ATPgS, 30 mM NaCl, 30 C 15 min, 100 nM bp DNA; plasmid EMSA: 80 mM KCl, plus 1 mM MnCl2, 30 C 1 h; mass photometry 25 mM KCl; details: protein: recombinant; tags: Mre11-6xHis; Rad50 untagged; chain copies: 2;2; label: 3'-32P on strand 1 (terminal transferase); blunt before 3' labeling
# T1 sequence (P32829 whole entry, one chain of several): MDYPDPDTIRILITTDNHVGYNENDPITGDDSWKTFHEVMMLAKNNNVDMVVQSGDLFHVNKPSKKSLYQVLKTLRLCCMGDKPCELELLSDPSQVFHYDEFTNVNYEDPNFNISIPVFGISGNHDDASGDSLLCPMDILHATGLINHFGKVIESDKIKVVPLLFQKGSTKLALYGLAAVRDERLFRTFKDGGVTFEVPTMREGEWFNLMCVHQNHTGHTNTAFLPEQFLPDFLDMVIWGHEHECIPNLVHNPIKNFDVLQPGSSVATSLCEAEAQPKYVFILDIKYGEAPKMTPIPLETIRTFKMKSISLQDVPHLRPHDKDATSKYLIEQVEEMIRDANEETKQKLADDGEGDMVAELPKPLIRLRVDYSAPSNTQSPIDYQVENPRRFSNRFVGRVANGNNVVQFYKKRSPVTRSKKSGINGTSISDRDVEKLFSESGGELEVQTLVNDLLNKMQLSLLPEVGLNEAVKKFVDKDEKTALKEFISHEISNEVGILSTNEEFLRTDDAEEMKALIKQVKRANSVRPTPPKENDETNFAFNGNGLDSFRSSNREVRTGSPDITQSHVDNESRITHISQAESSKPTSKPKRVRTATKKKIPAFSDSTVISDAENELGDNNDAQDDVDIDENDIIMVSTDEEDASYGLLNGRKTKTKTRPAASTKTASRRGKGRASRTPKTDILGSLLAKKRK
# MRho [2] = target: T2, MRho (S. cerevisiae, UniProt P32829;P12753 1-692;1-1312, N121A;D124N;Rad50:); test: mass photometry; 25 mM KCl; Oligo EMSA: 25 mM Tris acetate pH 7.5, 1 mM DTT, 0.25 mg/ml BSA, 5 mM Mg acetate, 1 mM ATPgS, 30 mM NaCl, 30 C 15 min, 100 nM bp DNA; plasmid EMSA: 80 mM KCl, plus 1 mM MnCl2, 30 C 1 h; mass photometry 25 mM KCl; details: protein: recombinant, tags: Mre11-6xHis, Rad50 untagged, chain copies: 2;2
# T2 sequence (P32829 whole entry, stated change not applied, one chain of several): as the sequence (P32829 whole entry, one chain of several) above
# MRlo = MRlo (S. cerevisiae, UniProt P32829;P12753 1-692;1-1312, L116A;I119A;T127A;L128A;Rad50:); test: mass photometry; 25 mM KCl, 5 nM protein, 2.5 nM DNA; Oligo EMSA: 25 mM Tris acetate pH 7.5, 1 mM DTT, 0.25 mg/ml BSA, 5 mM Mg acetate, 1 mM ATPgS, 30 mM NaCl, 30 C 15 min, 100 nM bp DNA; plasmid EMSA: 80 mM KCl, plus 1 mM MnCl2, 30 C 1 h; mass photometry 25 mM KCl; details: protein: recombinant; tags: Mre11-6xHis; Rad50 untagged; chain copies: 2;2; 1-nt 5' overhangs as printed
# Sequence of MRlo (P32829 whole entry, stated change not applied, one chain of several): as the sequence (P32829 whole entry, one chain of several) above
# [3] = target: the molecule itself; test: negative staining TEM; purified complexes without DNA; 25 mM Tris acetate pH 7.5, 1 mM DTT, 120 mM KCl; 4 °C, or 30 °C for 30 min with 5 mM Mg2+, 1 mM Mn2+, 1 mM ATPγS; oligomers stable at 150 mM KCl or NaCl; step: M2R2 to (M2R2)n
# [4] = target: the molecule itself; test: negative staining TEM; proteins on linear or circular plasmid DNA, 30 °C 30 min, Mg2+, Mn2+, ATPγS (or ATP), 30-50 mM KCl; 50-100 nM MR; oligomerization on DNA
# Mre11-Rad50 (MRwt) [5] = target: T1, Mre11-Rad50 (MRwt); test: EMSA; ATPgS, 5 mM Mg2+, 30 mM NaCl; mean of the 3 visible of 4 replicates (20.5, 22.96, 22.55); apparent; Oligo EMSA: 25 mM Tris acetate pH 7.5, 1 mM DTT, 0.25 mg/ml BSA, 5 mM Mg acetate, 1 mM ATPgS, 30 mM NaCl, 30 C 15 min, 100 nM bp DNA; plasmid EMSA: 80 mM KCl, plus 1 mM MnCl2, 30 C 1 h; mass photometry 25 mM KCl; details: protein: recombinant; tags: Mre11-6xHis; Rad50 untagged; chain copies: 2;2; label: 3'-32P on strand 1 (terminal transferase); blunt before 3' labeling
# Mre11-Rad50 (MRwt) [6] = target: T1, Mre11-Rad50 (MRwt); test: EMSA; ATPgS, 5 mM Mg2+, 30 mM NaCl; mean of the 2 visible of 3 replicates (7.787, 6.135); apparent; Oligo EMSA: 25 mM Tris acetate pH 7.5, 1 mM DTT, 0.25 mg/ml BSA, 5 mM Mg acetate, 1 mM ATPgS, 30 mM NaCl, 30 C 15 min, 100 nM bp DNA; plasmid EMSA: 80 mM KCl, plus 1 mM MnCl2, 30 C 1 h; mass photometry 25 mM KCl; details: protein: recombinant; tags: Mre11-6xHis; Rad50 untagged; chain copies: 2;2; label: 3'-32P; blunt before 3' labeling
# Mre11-Rad50-Xrs2 (MRX) = Mre11-Rad50-Xrs2 (MRX) (S. cerevisiae, UniProt P32829;P12753;P33301 1-692;1-1312;1-854); test: mass photometry; 25 mM KCl; Oligo EMSA: 25 mM Tris acetate pH 7.5, 1 mM DTT, 0.25 mg/ml BSA, 5 mM Mg acetate, 1 mM ATPgS, 30 mM NaCl, 30 C 15 min, 100 nM bp DNA; plasmid EMSA: 80 mM KCl, plus 1 mM MnCl2, 30 C 1 h; mass photometry 25 mM KCl; details: protein: recombinant; tags: His-Mre11; Rad50 untagged; Xrs2-FLAG; chain copies: 2;2;1; blunt
# Sequence of Mre11-Rad50-Xrs2 (MRX) (P32829 whole entry, chain 1 of 2): as the sequence (P32829 whole entry, one chain of several) above
# Sequence of Mre11-Rad50-Xrs2 (MRX) (P33301 whole entry, chain 3 of 2): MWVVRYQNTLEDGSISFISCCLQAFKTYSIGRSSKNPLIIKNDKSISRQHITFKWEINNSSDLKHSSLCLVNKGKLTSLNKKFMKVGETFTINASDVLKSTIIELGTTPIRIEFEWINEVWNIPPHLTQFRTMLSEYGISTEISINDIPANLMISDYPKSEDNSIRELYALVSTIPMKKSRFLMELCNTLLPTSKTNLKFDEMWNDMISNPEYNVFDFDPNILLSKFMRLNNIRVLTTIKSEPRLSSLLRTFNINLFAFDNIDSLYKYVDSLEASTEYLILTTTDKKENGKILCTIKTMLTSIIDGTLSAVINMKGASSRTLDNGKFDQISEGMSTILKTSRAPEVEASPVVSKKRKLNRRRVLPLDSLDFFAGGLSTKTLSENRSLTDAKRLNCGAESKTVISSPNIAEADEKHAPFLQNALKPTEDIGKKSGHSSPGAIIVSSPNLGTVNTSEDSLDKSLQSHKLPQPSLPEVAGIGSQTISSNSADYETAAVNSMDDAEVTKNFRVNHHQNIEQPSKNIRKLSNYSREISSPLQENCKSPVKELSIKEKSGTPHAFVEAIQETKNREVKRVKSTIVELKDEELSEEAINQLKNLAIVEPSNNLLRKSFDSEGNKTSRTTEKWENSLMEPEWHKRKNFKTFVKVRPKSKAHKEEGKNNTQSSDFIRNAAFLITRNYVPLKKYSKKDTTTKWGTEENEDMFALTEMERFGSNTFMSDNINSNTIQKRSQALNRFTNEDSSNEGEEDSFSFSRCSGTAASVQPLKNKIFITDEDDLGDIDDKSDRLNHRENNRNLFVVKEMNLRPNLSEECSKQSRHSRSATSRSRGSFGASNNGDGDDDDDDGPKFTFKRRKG
# Mre11-Rad50 (MRwt) [7] = target: T1, Mre11-Rad50 (MRwt); test: mass photometry; 25 mM KCl; two dimers per DNA detected; Oligo EMSA: 25 mM Tris acetate pH 7.5, 1 mM DTT, 0.25 mg/ml BSA, 5 mM Mg acetate, 1 mM ATPgS, 30 mM NaCl, 30 C 15 min, 100 nM bp DNA; plasmid EMSA: 80 mM KCl, plus 1 mM MnCl2, 30 C 1 h; mass photometry 25 mM KCl; details: protein: recombinant; tags: Mre11-6xHis; Rad50 untagged; chain copies: 2;2; blunt
# Mre11-Rad50 (MRwt) [8] = target: T1, Mre11-Rad50 (MRwt); test: mass photometry; 25 mM KCl; Oligo EMSA: 25 mM Tris acetate pH 7.5, 1 mM DTT, 0.25 mg/ml BSA, 5 mM Mg acetate, 1 mM ATPgS, 30 mM NaCl, 30 C 15 min, 100 nM bp DNA; plasmid EMSA: 80 mM KCl, plus 1 mM MnCl2, 30 C 1 h; mass photometry 25 mM KCl; details: protein: recombinant; tags: Mre11-6xHis; Rad50 untagged; chain copies: 2;2; bottom as printed is a circular permutation of the complement of top (possible printing error); stated 73 bp
# MRho [9] = target: T2, MRho; test: mass photometry; 25 mM KCl; two dimers per DNA detected; Oligo EMSA: 25 mM Tris acetate pH 7.5, 1 mM DTT, 0.25 mg/ml BSA, 5 mM Mg acetate, 1 mM ATPgS, 30 mM NaCl, 30 C 15 min, 100 nM bp DNA; plasmid EMSA: 80 mM KCl, plus 1 mM MnCl2, 30 C 1 h; mass photometry 25 mM KCl; details: protein: recombinant; tags: Mre11-6xHis; Rad50 untagged; chain copies: 2;2; bottom as printed is a circular permutation of the complement of top (possible printing error); stated 73 bp
binder,measurement,setting,value
B1,Kd,Mre11-Rad50 (MRwt) [1],~13.6 nM
B2,binding result,MRho [2]; 1-nt 5' overhangs as printed,binds
same,binding result,MRlo,no binding
B3,binding result,[3],binds
B4,binding result,[4],binds
B5,binding result,[4],binds
B6,Kd,Mre11-Rad50 (MRwt) [5],~22 nM
B7,Kd,Mre11-Rad50 (MRwt) [6],~6.96 nM
B8,binding result,MRho [2]; blunt,binds
same,binding result,Mre11-Rad50-Xrs2 (MRX),binds
same,binding result,Mre11-Rad50 (MRwt) [7],binds
B9,binding result,Mre11-Rad50 (MRwt) [8],binds
same,binding result,MRho [9],binds

# Reference: PMC9061753, “Mre11-Rad50 oligomerization promotes DNA double-strand break repair” (Nature Communications, 2022)
